System: CD200−, SSEA4+, and CD104+ ocular surface stem cells
Assay: Three-dimensional culture for induction of lacrimal gland organoids from iPS cell-derived ocular surface stem cells
Assay type: cell-based, Human
Details: for promoting lacrimal gland differentiation: 3D culture in Matrigel, 20 ng/mL KGF, 100 ng/mL FGF10, 100 ng/mL BMP7 or 10 μM Y-27632, each plus 10 ng/mL EGF, FIG. 5A
Procedure: The obtained ocular surface stem cells were seeded on PrimeSurface (registered trademark) 96U plates (Sumitomo Bakelite Co., Ltd.) at 50,000 cells/spheroid in DMEM/F-12 with B27 supplement containing 10 μM Y-27632 and 20 ng/mL KGF and cultured for 1 day to form spheroids (diameter: about 560 μm). The spheroids were embedded in Matrigel GFR (Corning) and cultured in DMEM/F-12 with B27 supplement containing 10 μM Y-27632, 10 ng/mL EGF, and 100 ng/mL TGF-β3 for 2 weeks.
Three-dimensional culture was performed as described in Example 2 in the presence of 10 ng/mL EGF, 10 ng/mL EGF plus 10 μM Y-27632, or 10 ng/mL EGF plus another growth factor reportedly involved in lacrimal gland differentiation, namely, 20 ng/mL KGF, 100 ng/mL FGF10, or 100 ng/mL BMP7.
Similarly, three-dimensional culture was performed in DMEM/F-12 with B27 supplement, 10 ng/mL EGF, and 10 μM Y-27632 containing 100 ng/mL TGF-β1, β2, or β3.
Three-dimensional culture was performed as described in Example 2 in a medium with 10 ng/mL EGF and 10 μM Y-27632 containing 4, 20, or 100 ng/mL TGF-β3.
RNA was collected from each sample using QIAzol Lysis Reagent and subjected to gene expression analysis as described in Example 3.

Molecule | promoting lacrimal gland differentiation | other results
TGF-β | – | maturation of the lacrimal gland structure (100 ng/mL TGF-β1, β2 or β3 in medium with 10 ng/mL EGF and 10 μM Y-27632, FIG. 5B): helped further maturation of the lacrimal gland structure
C[C@@H](N)[C@H]1CC[C@H](C(=O)Nc2ccncc2)CC1 [Y-27632, N-(4-pyridinyl)-4β-[(R)-1-aminoethyl]cyclohexane-1α-carboamide, reference compound] | remarkably promoted lacrimal gland differentiation | –
TGF-β3: TGF-β subtype added to the medium to promote cell maturation (protein, UniProt P10600 301-412, looked up, Transforming growth factor beta-3, TGF-β subtype added to the medium to promote cell maturation) Transforming growth factor …: ALDTNYCFRNLEENCCVRPLYIDFRQDLGWKWVHEPKGYYANFCSGPCPYLRSADTTHSTVLGLYNTLNPEASASPCCVPQDLEPLTILYYVGRTPKVEQLSNMVVKSCKCS | – | maturation (morphology and gene expression) (4 ng/mL TGF-β3 in medium with 10 ng/mL EGF and 10 μM Y-27632, FIGS. 6A, 6B): maturation was promoted to some extent; extent of maturation, concentration dependence (4, 20 or 100 ng/mL TGF-β3 in medium with 10 ng/mL EGF and 10 μM Y-27632): increased in a TGF-β3 concentration dependent manner
KGF: keratinocyte growth factor, growth factor reportedly involved in lacrimal gland differentiation (protein, UniProt P21781 32-194, looked up) Fibroblast growth factor 7: CNDMTPEQMATNVNCSSPERHTRSYDYMEGGDIRVRRLFCRTQWYLRIDKRGKVKGTQEMKNNYNIMEIRTVAVGIVAIKGVESEFYLAMNKEGKLYAKKECNEDCNFKELILENHYNTYASAKWTHNGGEMFVALNQKGIPVRGKKTKKEQKTAHFLPMAIT | less effective | –
FGF10: growth factor reportedly involved in lacrimal gland differentiation (protein, UniProt O15520 38-208, looked up) Fibroblast growth factor 10: QALGQDMVSPEATNSSSSSFSSPSSAGRHVRSYNHLQGDVRWRKLFSFTKYFLKIEKNGKVSGTKKENCPYSILEITSVEIGVVAVKAINSNYYLAMNKKGKLYGSKEFNNDCKLKERIEENGYNTYASFNWQHNGRQMYVALNGKGAPRRGQKTRRKNTSAHFLPMVVHS | less effective | –
BMP7: growth factor reportedly involved in lacrimal gland differentiation (protein, UniProt P18075 293-431, looked up) Bone morphogenetic protein 7: STGSKQRSQNRSKTPKNQEALRMANVAENSSSDQRQACKKHELYVSFRDLGWQDWIIAPEGYAAYYCEGECAFPLNSYMNATNHAIVQTLVHFINPETVPKPCCAPTQLNAISVLYFDDSSNVILKKYRNMVVRACGCH | less effective | –

— patent publication US12291727B2, “Method for producing stem cell-derived lacrimal gland tissue” (Osaka University, priority 2018, dated 2025)
